Assay results published in paper PMC12612047 (Nature Communications, 2025).

Test system: CNA/B
Assay: Affinity of CLMB T44E for CNA/B
Assay type: binding
Settings: glutamate for threonine at position 44; data not shown

B1: CLMB^T44E (protein)
chain: MGLKMSCLKGFQMCVSSSSSSHDEAPVLNDKHLDVPDIIITPPEPTGMMLPRDLGSTVWLDETGSCPDDGEIDPEA
- affinity for CNA/B relative to CLMB: failed to show increased affinity
